This is an account of results in patent US20190270793A1.

For this experiment, the target named is tau seeds in spinal cord homogenates of P301S transgenic mice (aggregated transgenic human tau) (human), P10636. The experiment is described as follows: cell-based or functional assay.
Sequence of tau seeds in spinal cord homogenates of P301S transgenic mice (aggregated transgenic human tau) (human), P10636 (P10636 other isoform, or with tags, fused parts or gaps P301S P301S): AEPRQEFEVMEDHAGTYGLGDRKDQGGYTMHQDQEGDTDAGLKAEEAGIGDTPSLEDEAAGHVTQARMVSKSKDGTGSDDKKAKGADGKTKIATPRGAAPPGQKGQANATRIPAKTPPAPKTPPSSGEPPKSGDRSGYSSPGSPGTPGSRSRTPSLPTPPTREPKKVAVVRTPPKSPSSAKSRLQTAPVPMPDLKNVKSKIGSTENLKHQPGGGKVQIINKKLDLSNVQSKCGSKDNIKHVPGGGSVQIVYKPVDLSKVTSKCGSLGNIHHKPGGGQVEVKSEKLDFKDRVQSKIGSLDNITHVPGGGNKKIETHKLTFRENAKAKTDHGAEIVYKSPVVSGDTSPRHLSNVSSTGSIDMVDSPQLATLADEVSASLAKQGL

B1: PT82 mAb, recombinantly expressed (mouse IgG2a/kappa) (antibody, V domains shown)
VH: EVKLEESGGGLVQPGGSMKLSCVASGFTFSNYWMNWIRQSPEKGLEWVAQIRLQSDNYATRYAESVKGRFTISRDESKTSVYLQMNNLRTEDTGIYYCTGGTTYWGQGTLVTVSA
VL: DIVMTQSQKFMSTSVGDRVSITCKASQNVGTAVAWYQQKPGQSPKLLIYSASIRYTGVPDRFTGSGSGTDFTLTINYMQSEDLADYFCQQFSSYPYTFGGGTKLEIK
For the molecule B1, the Tau aggregate induction (K18 aggregate formation, FRET-positive HEK cells counted by FACS) amounted to 3 nM.
